Data as given in article PMC12000384, “Competition for the nascent leading strand shapes the requirements for PCNA loading in the replisome” (The EMBO Journal, 2025).

Biological target: T1, CMG (Cdc45-MCM-GINS) helicase (S. cerevisiae, UniProt Q08032 1-650; P29469 1-868; P24279 1-971; P30665 1-933; P29496 1-775; P53091 …)
T1 construct: Cdc45, S. cerevisiae; Mcm2, S. cerevisiae; Mcm3, S. cerevisiae; Mcm4, S. cerevisiae; Mcm5, S. cerevisiae; Mcm6, S. cerevisiae; Mcm7, S. cerevisiae; GINS subunit, S. cerevisiae; 11-subunit helicase; The two strains express the same chains; in yVA94 endogenous Ctf4-2xStrep was depleted on Strep-Tactin resin; also called Ctf4-depleted CMG; wild-type CMG; source: S. cerevisiae, overexpressed, …
Assay: cryo-EM structure; replisome reconstituted on ice on forked DNA with 0.5 mM AMP-PNP from 150 nM CMG (Ctf4-depleted), Pol ε^exo-, Ctf18-RFC, Tof1-Csm3, Ctf4 and Mrc1 in 25 mM HEPES-NaOH pH 7.6, 150 mM NaOAc, 15 mM Mg(OAc)2, 0.5 mM TCEP; 10-30% glycerol gradient with glutaraldehyde and BS3 cross-linking
Conditions: both partners purified

Binder	binding result
Ctf4 (natural protein, S. cerevisiae, UniProt Q01454 1-927, looked up, Ctf4, S. cerevisiae; source: purified as in Yeeles et al, 2015) MVSVIDKLVFDFGGKTLVSLAPDNNTLCVANKNGLTKILKTNNPEEEPETLDSSKLVSSIKCYSNSHFLMTTMQGDALRYNIDSSQEELLARFALPLRDCCVIHSGKMAVFGGDDLELILLELDDETHKKHAIKIDEQVSQISYNSQMNILAVSMINGKVQIFSLTSTIPNKVHELNDYIVANSYDDTHRDKILSNMMDDIDKDNDNDLSETADPDENNVADPEFCAANRICTRVAWHPKGLHFALPCADDTVKIFSIKGYSLQKTLSTNLSSTKAHFIDLQFDPLRGTYIAAVDLNNKLTVWNWETSEIHYTREFKRKITNIAWKIQADSKTLDLVLGTWSGSIAIVQNLAESVVSNIPDQSVAESSTKHGLFVDSESDLENLEGNDDINKSDKLFSDITQEANAEDVFTQTHDGPSGLSEKRKYNFEDEEDFIDDDDGAGYISGKKPHNEHSYSRVHKTHSFPISLANTGKFRYMPFSPAGTPFGFTDRRYLTMNEVGYVSTVKNSEQYSITVSFFDVGRFREYHFEDLFGYDLCFLNEKGTLFGQSKTGQIQYRPHDSIHSNWTKIIPLQAGERITSVAATPVRVIVGTSLGYFRSFNQFGVPFAVEKTSPIVALTAQNYRVFSVHYSQFHGLSYSLSELGTSSKRYYKRECPLPMSLPNINSDMKKDANLDYYNFNPMGIKSLFFSSYGDPCIFGSDNTLLLLSKWRSPEESKWLPILDSNMEIWKMSGGKETTDIHVWPLALAYDTLNCILVKGKHIWPEFPLPLPSEMEIRMPVFVKSKLLEENKAILNKKNEIGADTEAEEGEEDKEIQIPVSMAAEEEYLRSKVLSELLTDTLENDGEMYGNENEVLAALNGAYDKALLRLFASACSDQNVEKALSLAHELKQDRALTAAVKISERAELPSLVKKINNIREARYEQQLK	binds
Tof1-Csm3 (complex, S. cerevisiae, Tof1, S. cerevisiae; Csm3, S. cerevisiae; source: purified as in Yeeles et al, 2017) chain 1: MSADLQQGTTNAADFSLTVLRARIALLATAIGGPDYTSQIDPPPYKLGDDCLACLKDLKRWFKLVDDQQKRWDVAMAVAEYRILTDDLLPILIDWENKCSLAAKLAKNNPDHEEFRNKAYYDKIALNCLQLLVLMTWPLIVTEQSSSNQITLYGELKKHQLVYKKTILSMESGKVLRAAIRLALDVIKIDRLSRTPRDNMVLKLVLNFFRNVIAIEPGEFTINTKKSMPKKGITSIDTLPPNVSMDDISLNTVISSFHKNKVFGFLLTLTSSLSKEFDQDFINIPLLEIMFYFTKDVNQELLFPRQFETGTHSKVVNKNESSSANNIVTSAGFELSKLLQKEHQMRKNVIKHTSARHSRFGGLLSIQTPDKTRLTVSGSQALVDEKIALQKLDDSKKWNKRIIKKHQSVAAEGLPNSLLNSQTGKAIFFTESNGKHFKEFINNFIDSGFNILLHSVTNYFTTEQDRMVTLEQVEYLLFFAWFVKYQLLRSKIDNSADIKQVSEALKEVTFILVSSLLRSAYDLKNWTVTHAGMIAFNELLNLVSRTKAAQEEDSTDIEFIVSRLFSDERIQLLSNLPKIGSKYSLQFMKSCIELTHSVLKVLEQYSDDKTLVIEGKSRRQKKFNISEGDITKLIEEENVDRDEALDILTSSLRSIEVNFQKVQANYMTEPVIETYINFLERFRELEDDSIKKVFSFFHRVFVQAKEQALLFRFDLIILLREMLSPDGLDRMSRSRKYVSQFSDYFLARLKKRLKKSPAWFVGLLFPPLHNSEVGFYQRYGEYNVLNNESMYAAPASQFKPIPDEEALPPSILLDMKYGVLVSTLLDDGKTELLDQLLKHITHTLDIFKSWLTVNVNAGKETVNPPNEYFTLTGVLNNDPIFKDKDYRALLLLIGYSIPRKINEPCFLPGTVEVSDLTVSCELVKKYLSTPFETPNGLPSSSYLLRVRSEKDSFSHNEQDGWEGDDDYDYNDPYIVPDDQILSKSDAAYFKDLDNNASDKLKGTKFSKGIARSKKKDKRKRRKGEAKTNLPMFGDQDDERPQTVRERHGVFSKEFISDSEDDEDLMNPIFFENETYMRWLLDKNNGQLTEDRYIQFAKFAAERMNNGGVVTGDYTSLFGGSIPSIESIRATESSSFAPDKSLISLASHVASEMSIFDVNNNNNNQLSDDDVNSESRNSLGSSQPSNSQNMFQSEVYSRKESTKRSLEASAADESDEDEEAIRLFGKKSRVVLSQGDSDD chain 2: MDQDFDSLLLGFNDSDSVQKDPTVPNGLDGSVVDPTIADPTAITARKRRPQVKLTAEKLLSDKGLPYVLKNAHKRIRISSKKNSYDNLSNIIQFYQLWAHELFPKAKFKDFMKICQTVGKTDPVLREYRVSLFRDEMGMSFDVGTRETGQDLERQSPMVEEHVTSAEERPIVADSFAQDKRNVNNVDYDNDEDDDIYHLSYRNRRGRVLDERGNNETVLNNVVPPKEDLDALLKTFRVQGPVGLEENEKKLLLGWLDAHRKMEKGSMTEEDVQLIQSLEEWEMNDIEGQHTHYDLLPGGDEFGVDQDELDAMKEMGF	binds
